Measurements published in patent publication US20110144024A1.

Experiments:
thrombin [1] = experiment: SPR (Biacore 3000), 50 nM TM irradiated with 20 Gy over immobilized thrombin; reference is sham-irradiated (0 Gy) TM; 3 experiments
thrombin [2] = experiment: cell-based or functional assay
thrombin [3] = experiment: SPR (Biacore 3000), 50 nM TM irradiated with 1.77 Gy over immobilized thrombin; reference is sham-irradiated (0 Gy) TM; 3 experiments
thrombin [4] = experiment: SPR (Biacore 3000), 50 nM TM irradiated with 80 Gy over immobilized thrombin; reference is sham-irradiated (0 Gy) TM; 3 experiments

Substance: recombinant full length human thrombomodulin (from UniProt P07204 19-515) (receptor)
- decrease of average RU value relative to baseline (0 Gy) (thrombin [1]): 18.9%
- mean reduction in protein C activation, TM exposed to 1.77 Gy without MPO (thrombin [2]): 12%
- reduction in protein C activation, TM exposed to 1.77 Gy in the presence of MPO (thrombin [2]): 40%
- decrease of average RU value relative to baseline (0 Gy) (thrombin [3]): 13.2%
- decrease of average RU value relative to baseline (0 Gy) (thrombin [4]): 21.6%
